Tests used:
Format in all cases: biochemical, Mycolicibacterium smegmatis
Conditions in all cases: 50 mM sodium phosphate pH 7.0, 37 °C, 15 min
NC(=O)c1cccnc1 = assay: colorimetric ammonia formation, Lineweaver-Burk
Text: (§1) colorimetric ammonia formation, Lineweaver-Burk on PzaA

NC(=O)c1ccncc1 = assay: colorimetric ammonia formation, Lineweaver-Burk
Text: as §1

NC(=O)c1cnccn1 = assay: colorimetric ammonia formation, Lineweaver-Burk
Text: as §1

NNC(=O)c1ccncc1 = assay: colorimetric hydrazine formation (p-dimethylaminobenzaldehyde), Lineweaver-Burk
Text: (§2) colorimetric hydrazine formation (p-dimethylaminobenzaldehyde), Lineweaver-Burk on PzaA

NNC(=O)c1cccnc1 = assay: as above
Text: as §2

## PzaA (Mycolicibacterium smegmatis MC2 155)
NC(=O)c1cccnc1
  Km: 0.0887 (0.0113) mM
  Vmax: 37.2 µmol/min/mg
  Vmax/Km: 419000 µL/min/mg
NC(=O)c1ccncc1
  Km: 0.145 (0.0203) mM
  Vmax: 6.48 µmol/min/mg
  Vmax/Km: 44700 µL/min/mg
NC(=O)c1cnccn1
  Km: 0.143 (0.0078) mM
  Vmax: 11.7 µmol/min/mg
  Vmax/Km: 81800 µL/min/mg
NNC(=O)c1ccncc1
  Km: 1.20 (0.271) mM
  Vmax: 1.51 µmol/min/mg
  Vmax/Km: 1260 µL/min/mg
NNC(=O)c1cccnc1
  Km: 1.26 (0.0475) mM
  Vmax: 23.7 µmol/min/mg
  Vmax/Km: 18800 µL/min/mg

— article PMC10199920, “Identification of a mycobacterial hydrazidase, an isoniazid-hydrolyzing enzyme” (Scientific Reports, 2023)
